Molecular target: ribosomes of dog pancreas rough microsomes (ribosomal pellet after digitonin solubilisation) (dog (endogenous in dog pancreas microsomes))
Assay: co-sedimentation

Question: With “RAMP4 (ribosome-associated membrane protein 4, dog pancreas microsomes) (from UniProt A0A8I3PRN4 1-66) (natural protein)” as the substance, how does the percent in the ribosome pellet read?
Answer: 10 to 20%

Question: For “Sec61β, subunit of the Sec61p translocon complex (dog pancreas microsomes) (from UniProt P60467 1-96) (natural protein)”, which percent pelleted with ribosomes is on record?
Answer: 80%
